From patent publication US20120003694A1 (SYRACUSE UNIVERSITY, published 2012)
Where two headings read alike, the source gives them in different places.

B1: FhuA ΔC/Δ4L protein nanopore (engineered Escherichia coli ferric hydroxamate uptake component A lacking the cork domain and loops L3, L4, L5 and L11) (other)
chain: LKEVQFKAGTDSLFQTGFDFSDSLDDDGVYSYRLTGLARSANAQQKGSEEQRYAIAPAFTWRPDDKTNFTFLSYFQNEPETGNSEGSTYSRNEKMVGYSFDHEFNDTFTVRQNLRFAENKTSQNSVYGYGVNSEGSYLARKYVVDDEKLQNFSVDTQLQSKFATGDIDHTLLTGVDFMRMRNDINAWFGYNSEGSGPYRILNKQKQTGVYVQDQAQWDKVLVTLGGRYDWADQESLNRVAGTTDKRDDKQFTWRGGVNYLFDNGVTPYFSYSESFEPSSQVGKDGNIFAPSKGKQYEVGVKYVPEDRPIVVTGAVYNLTKTNNLMADPEGSFFSVEGGEIRARGVEIEAKAALSASVNVVGSYTYTDAEYTTDTTYKGNTPAQVPKHMASLWADYTFFDGPLSGLTLGTGGRYTGSSYGDPANSFKVGSYTVVDALVRYDLARVGMAGSNVALHVNNSEGSQVVATATFRF
B2: pb2(35)-Ba (barnase fused to the first 35 amino acids of the N-terminal region of pre-cytochrome b2) (other)
chain: MLKYKPLLKISKNCEAAILRASKTRLNTIRAYGSTAQVINTFDGVADYLQTYHKLPDNYITKSEAQALGWVASKGNLADVAPGKSIGGDIFSNREGKLPGKSGRTWREADINYTSGFRNSDRILYSSDWLIYKTTDHYQTFTKIR
notes: range 1-35;domain: folded ribonuclease barnase (Ba), 110-residue; also called pb2(35)-Ba/35
B3: pb2(65)-Ba (barnase fused to the first 65 amino acids of the N-terminal region of pre-cytochrome b2) (other)
chain: MLKYKPLLKISKNCEAAILRASKTRLNTIRAYGSTVPKSKSFEQDSRKRTQSWTALRVGAILAATAQVINTFDGVADYLQTYHKLPDNYITKSEAQALGWVASKGNLADVAPGKSIGGDIFSNREGKLPGKSGRTWREADINYTSGFRNSDRILYSSDWLIYKTTDHYQTFTKIR
notes: range 1-65;domain: folded ribonuclease barnase (Ba), 110-residue
B4: pb2(95)-Ba (barnase fused to the first 95 amino acids of the N-terminal region of pre-cytochrome b2) (other)
chain: MLKYKPLLKISKNCEAAILRASKTRLNTIRAYGSTVPKSKSFEQDSRKRTQSWTALRVGAILAATSSVAYLNWHNGQIDNEPKLDMNKQKISPAEAQVINTFDGVADYLQTYHKLPDNYITKSEAQALGWVASKGNLADVAPGKSIGGDIFSNREGKLPGKSGRTWREADINYTSGFRNSDRILYSSDWLIYKTTDHYQTFTKIR
notes: range 1-95;domain: folded ribonuclease barnase (Ba), 110-residue

Tests used:
[1] = target: B2; test: single-channel electrical recording, planar lipid bilayer, analyte added trans, 1 M KCl, 10 mM potassium phosphate, pH 7.4
[2] = target: T1, HIV-1 nucleocapsid protein (NCp7) (HIV-1, UniProt P04591 378-432); test: as above
T1 construct: domain: nucleocapsid protein (NCp7), 55 amino acids; also called NCp7/55

[3] = target: B2
[4] = target: B1; test: single-channel recording at a higher applied voltage (+120 mV)
[5] = target: B1; test: single-channel recording at a higher applied voltage (+100 mV)

Row | Binder | kon [1] [M⁻¹ s⁻¹] | koff [2] [s⁻¹] | kon [2] [M⁻¹ s⁻¹] | kon [3] [M⁻¹ s⁻¹] | partition time at +120 mV [4] [ms] | partition time at +100 mV [5] [ms]
1 | B1 | 180000 | 9000 | 2e+06 | 110000 | – | –
2 | B2 | – | – | – | – | ~12 | ~4
3 | B3 | – | – | – | – | ~12 | ~4
4 | B4 | – | – | – | – | ~12 | ~4
